Laboratory results from patent US20240417462A1 (SHANGHAI CELGEN BIO PHARMACEUTICAL, published 2024).
Numbering of substitutions follows the chain as printed.

T1: mouse TIGIT antigen (mouse, UniProt P86176 29-148, limits assumed)
T1 construct: construct not described; also called murine TIGIT
T1 sequence (looked up): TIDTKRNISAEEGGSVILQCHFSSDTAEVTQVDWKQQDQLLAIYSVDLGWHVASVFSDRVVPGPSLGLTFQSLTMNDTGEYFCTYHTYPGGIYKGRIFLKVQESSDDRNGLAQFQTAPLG

T2: recombinant human TIGIT (Human TIGIT His, Sino Biological, 10917-H08H) (human, UniProt Q495A1 22-138)
T2 construct: range 1-138; bought; also called hTIGIT
T2 sequence (looked up): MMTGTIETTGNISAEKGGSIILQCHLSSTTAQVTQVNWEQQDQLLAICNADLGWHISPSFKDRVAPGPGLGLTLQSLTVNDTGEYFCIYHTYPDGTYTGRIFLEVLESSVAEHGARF

T3: full-length human TIGIT expressed on CHO-K cell membrane (CHO-K-TIGIT) (human, UniProt Q495A1 22-244)
T3 construct: whole, on cells; also called CHO-TIGIT; membrane TIGIT
T3 sequence (looked up): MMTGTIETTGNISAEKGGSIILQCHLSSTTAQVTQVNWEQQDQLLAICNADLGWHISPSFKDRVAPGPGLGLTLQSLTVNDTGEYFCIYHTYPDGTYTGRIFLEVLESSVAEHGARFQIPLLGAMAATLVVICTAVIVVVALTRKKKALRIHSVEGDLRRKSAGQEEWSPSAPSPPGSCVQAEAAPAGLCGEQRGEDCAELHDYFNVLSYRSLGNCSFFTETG

B1: anti-human TIGIT mouse monoclonal antibody 7103-06 (antibody, V domains shown)
VH: EEQLVESGGGLVKPGGTLKLSCAASGFTFSTYAMSWVRQSPEKRLEWVAEISSGGSYTYYSDTVTGRFTISRDNAKNTLYLEMSSLRSEDTAMYYCARKTLDYYALDYWGHGTSVTVSS
VL: DVQITQSPSYLAASPGETITINCRANKTISKYLAWYQEKPGKTNKLLIYSGSRLQSGIPSKFSGSGYGTDFTLTISSLEPEDFAMYYCQQHNEYPWTFGGGTKLEIK
notes: often printed as 7105-06; also called 7105-06; 47A2-1-2
B2: anti-human TIGIT mouse monoclonal antibody 7103-07 (antibody, V domains shown)
VH: B1 VH with E2V, L4V, K43Q, Y57H, Y59F, K76Q, S84N, H111Q
VL: B1 VL with N26S, T28S, L104V
notes: also called 42C12-1-2
B3: anti-human TIGIT mouse monoclonal antibody 7103-03 (antibody, V domains shown)
VH: EVQLQQSGPELVKPGASVKISCKTSGYTFTEYTMHWVKQSHGKSLEWIGGINPNNGGTSYNQKFKGKATLTVDKSSSTAYMELRSLTSEDSAVYYCARGAYYRYDFDYWGQGTTLTVSS
VL: DIVMTQSHKFMSTSVGDRVSITCKASQDVRTAVVWYQQKPGQSPKLLIYSASYRYTGVPDRFTGSGSGTDFTFTISSVQAEDLAVYYCQQHYSTPWTFGGGTKLEIK
notes: also called 36H8-2-2
B4: anti-human TIGIT mouse monoclonal antibody 7103-04 (antibody, V domains shown)
VH: VQLQESGAELVKPGASVKLSCRASGYTFTDYFVYWVKQRPGQGLEWIGGINPSNGGATFNEKFKNKATLTVDTSSSTAYMQLSSLTSEDSAIYYCTRGNFYGYEFAYWGQGTLVTVSA
VL: B3 VL with M11I, D28H, R30S, A51P, S93I
notes: also called 40E6-2-2

Target: T1, mouse TIGIT antigen
Assay: ELISA, coated mouse TIGIT
Protocol: (§1) The cynomolgus monkey or mouse TIGIT antigen of was coated with the same method as above, the anti-human TIGIT mouse monoclonal antibody was diluted in gradient, and then the anti-mouse Fab secondary antibody was added (Jackson Immuno Research, 515-035-072) for TMB development. ELISA was used to detect the binding of 8 mouse monoclonal antibodies to recombinant cynomolgus monkey TIGIT.

Row | binding result | Binder
1 | no binding | B1
2 | no binding | B2
3 | no binding | B3
4 | no binding | B4

Target: T2, recombinant human TIGIT (Human TIGIT …)
Assay: ELISA, coated human TIGIT-His

Row | EC50 [nM] | Binder
5 | 0.0393 | B1
6 | 0.075 | B2
7 | 0.0674 | B3
8 | 0.0727 | B4

Target: T4, recombinant cynomolgus monkey TIGIT (cynomolgus monkey, UniProt A0A7N9I9V4 89-209)
T4 construct: construct not described; also called cynomolgus TIGIT
Assay: ELISA, coated cynomolgus TIGIT
Protocol: as §1

T4 sequence (A0A7N9I9V4 entry or part of it): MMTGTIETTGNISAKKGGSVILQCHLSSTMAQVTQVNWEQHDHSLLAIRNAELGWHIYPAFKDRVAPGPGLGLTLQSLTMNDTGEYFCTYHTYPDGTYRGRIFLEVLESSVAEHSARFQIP

Row | EC50 [nM] | Binder
9 | 0.174 | B1
10 | 0.704 | B2
11 | 0.398 | B3
12 | 0.334 | B4

Target: T3, full-length human TIGIT expressed on …
Assay: flow cytometry, CHO-TIGIT cells

Row | EC50 [nM] | Binder
13 | 0.256 | B1
14 | 0.226 | B2
15 | 0.347 | B3
16 | 0.44 | B4

Target: T2, recombinant human TIGIT (Human TIGIT …)
Assay: competition ELISA, coated TIGIT-His, CD155-Fc as competitor

Row | IC50 [nM] | Binder
17 | 0.0607 | B1
18 | 0.159 | B2
19 | 0.141 | B3
20 | 0.183 | B4

Target: T4, recombinant cynomolgus monkey TIGIT
Assay: ELISA, recombinant cynomolgus TIGIT coated, anti-mouse Fab secondary antibody, TMB, OD450/655nm
Protocol: as §1

Row | EC50 [µg/mL] | Binder
21 | 0.026 | B1
22 | 0.106 | B2
23 | 0.06 | B3
24 | 0.05 | B4
